# Source: the DeepSol protein solubility set
# Assay: soluble on expression in E. coli; label from the status in PepcDB or PDB records
row,Sequence,soluble on expression in E. coli
1,MASFSILSIFKIGVGPSSSHTIGPMEAGARFCESLKGILEQVVRVQITLHGSLALTGKGHLSDEAVLIGLHGIYANELEVTTKKALLHEALENKVLKLANQHHIPFDYAKDLIFDNKPLTRHQNALILKAFNSKNEVLKEETYYSVGGGFVYTEKELDNLSEEDGNESIAYDFSSAKELLELCQKHQKSIAEIVRLRENALKNHPDATMVKIYHAMLECYDNGANSKERYLPGSLKVTRLAPSIKTRLEKHPTSGKDPLALIDYISLYARAIAEENASGGKVVTAPTNGACAVVPSVLLYAKNHLFENLSQKAINDFLLTSAAIGYLYKKNASLSGAEAGCQAEIGVASSMAAGGLAHLCQATTQQVLIASEIAMEHHLGLTCDPVGGLVQIPCIERNVLGAIKAISASKLALEDEYKPKVSLDEVIATMYATGKDMNEKYKETSLGGLAKTLKC,not soluble
2,MAVDVPGIISPKTAEAASQLTDGIGGRAYLNSNGAILVTKIQLPSSTQVSNGTAYIYSGFSGGTESDIGFQYSDKYNVWKPYMKVGSKGQDQVQYLEGGSQFTNTKGFRPGSTVQLTIYKNLNGNTRATYWGTNNAGYNGRLISEISKTNVGSISKWKALATVATTGSRQSIKSNFSTSFTNITIDNKAITPVIDTQDFAKVTVSGNSVSLSVVKNLEHHHHHH,soluble
3,MFSEELIKENENIWRRFLPHKFLIEMAENTIKKENFEKWLVNDYYFVKNALRFMALLMAKAPDDLLPFFAESIYYISKELEMFEKKAQELGISLNGEIDWRAKSYVNYLLSVASLGSFLEGFTALYCEEKAYYEAWKWVRENLKERSPYQEFINHWSSQEFGEYVKRIEKILNSLAEKHGEFEKERAREVFKEVSKFELIFWDIAYGGEGNVLEHHHHHH,soluble
4,IDHIEVLRDGASARYGSDAIAGVINIILKSADHGGSISSKYGQYKKGDGIQRQVSGNTGFALGDNGTLNLSGEGANNDYTNRAGDDLRASSIGSTTYGQQVFRQGEPETHEGKLQYNAEYSFNDAAEFYSFGGYSKRRGETAAFYRPSNASNNIAAIYPNGYLPLIHGTLEDTTFVTGLRGELADDWHYDLSANYGKNSYELRTKTINTSLGLNTPRSFDNGTLTNDQKQLSLDLSREFNATWLPYPVSVAFGAEYLRQGYQIEAGQAESYFQTGSSGLGGFRAADAGSYSRHNFAQYLDVETNLTEKLGVSAAVRHEDYSDFGSNVSGSLSARYDFTP,not soluble
5,MGHPARMAILSFLAKQESCFFGDIHEELPIAKATVSQHLKELKDAGLIQGEIETPKVRYCINKENWELARKLFAAFLGDCKCTGTSCCG,not soluble
6,MKTITQQYLTGERALFKAHDLEIDNTTFADGESPLKESRNVTLKQPIFKWKYPLWYSQHVTVDQGLFETMSRSGIWYTKDITITNSTLQAPKLFRRASQVKLAHVHFSDAEETLWNCQDITLNDVQAAGDYFGMNSQNIRIDGFNLVGNYAFDGAKNVEIHHATLMTKDALWNCENVTVYDSQIIGEYLGWNSKNIRFVNCTIESDQGLCYMDNVKLENCTLLNTDLAFEYCRNIDADVVSTIDSVKNPLSGRIHAQAIGEIIMDDPEVDPHQTLISVDHESRAPHAV,not soluble
7,MGSDKIHHHHHHMDRVLFLAMTGAKHEAWQQATTANNLANVNTNAFKADLAAYRALPVVGDGAPTRTYVVDNTIGFDASQGSLQHTGNPSDFALGTPGFFAVQGADGQEAYTRDGGYVLDATGLMRTHSGLLIMGDGGPITVPAGSQVQLGSDGSVMAVPQSGANRAPQLVGQIKMVNPGPKDVYKGEDKLFHVNGGGTLPASADVKLVPETLESSNVNSVEALVQMISHGRQYELNIKMMQTSQQNDQQAAQLLSMS,not soluble
8,MEDYEGKFSPSELKLKGIHTSTTFWTVGMIVQQYKNGHLVIPKIQRGYVWNEEKARRFIMSLLQGFPIPPIFIIELSGKFYVVDGQQRIRTILWFLGEDNELLEKLGPLRVPIKELAENYNEYGVTNLSEAIIKKIIFGNHPKEFNYKYFTKDFRQYFESLSIPVQHISISSGKEYILTDIFLRINQGSVKLSAMELWRVYYGKDIEEYFHKLNELARYTVAKIYEVSNGKISRQKLERFRIDEFILTFDVLINGLITPPNYIPKDAKLGAVIFSQKTTLKKVKIFVLENRRKVFKNNKGELKKFLDYLEREYKEILKMITYVLGEFTFRRPTIGNECQYALIRPSGNDINEAVFLYEVAIFKLLKDNGHSELIYENKDFIKHVILTSLIENDELFSRSTSTFRSVANKLELAKLTYKKIITKEDNITKDNLKRLLYEKFRASRVSNPVCPYCKEPISDISVADLAHIRPLAFGGQTYIHNLTLAHSTCNRRFGVRDISQYINRC,soluble
9,MASKRLGKQTVMLQNPPRITSTASIVGPKEGKGPLRLFFDNIIEDEMWGEKSWEKAESKLIRETFSKVLQKGNKTSQEIDYVISGDLLNQCIAANFGLRESDVPFFGVYGACSTIAESMSIGAMLVDGGFADNVVCITSSHFCSAEKQFRFPLELGTQRPPSAQWTVTGSGGVLISNDGSGPYITHITTGKIVDMGIKDANNMGAAMAPAAVDTIVTHFKDTGFTPESYDLILTGDLGAIGREICVELTREQGFNIENIYNDCGLMIYDREKQDTHAGGSGCGCAATVFAGFVYKKLMDGTLKNVLFVATGALLSPVSTQQGESIPSIAHAISITTSPER,soluble
10,MTLKFSVERLVDSEKESEEADVEEQNNLKKLEEDEEDDELCEKSGKNEPLSQTLSYFDVLLPHVQMACSNPFISGIGASGSGDQNLNTGAGGSVWQHPWLELLQSTTAAQFGDVTAGLFLQPLRKNKRIRTAFSASQLIQLEKAFEGNHYVVGNERKQLAAKLSLTETQVKVWFQNRRTKHKRVRLEGSDPNAPMSNDEDDEDDKKSVS,not soluble
11,MAHHHHHHMHSAIRFSGSSSRSTSSSMEVASAAAEPPLSVSSIPRRRSADRDDALSLLEPAVRLPTSTTSKASALSQSSLRSGSHPSAAVYGDNPGSAHTASSSYTRKGDNGDALLHQPPGNPQTRVPSSFAATVNTRASEASSHSARGRAGSSRRDNLDPAAPQSRTATQPPLTHPGSVFANIPWIPPPPIYGTPLPDSSNMNRHYAYYYDPRGATLRAPFCYPDEVPLRAQEHHSDVSGAEWPKPSDLPLPSVFPMPPHVLPQLSLPAVSAPTAEAAARGMVAAPHAWAIPPPVLYPPPPPPPWWFYGTHPLPLPASSSGSSASSTGSSRHASSSSPVSARSTTRPSRHPSANAARPHAEAAAPSRHGVAVPAGSVETPVAAASRGDAGGGHAAKKPSVASSGSRYAAGHTVGTGRAARRSMGSLSASSATTSPWSATTTTAHSDLPQRVERRVYASSGSGSSEMQRSATGQTVQVAPRRTNVAQCVPPDQLQVYGDDVVQERGYSSVMTRMKHAVSAAEAYLEKMEHLYRRLRSRYEEVVMSPGKVTRYGADITADEGVEEKRHRRTAPAATTRATRGPPEKGLLHPPERPFSRQTHLQPTAPLPHAERPVSPALSAAQPSAVEPSPPLSSSSSATSATSLRRELHLLESQWQRLEELKRHGGGGTTTAVSMPAALSPSTATSTAGEDPFTNRRFLQLIKDRKHLLTSAT,not soluble
12,MGSDKIHHHHHHMNAVTIFVHGFNGNADSTDHLIHGAQKNGWAQKMLVVKIKNDGAMDFDGELDQQVANPMVQVLFENNRAPERRQVSWMHQLLIKLRQSFGVEQYNGVGHSLGSNVLVNLAIKFGKDSRLPALKKLVTIAGPFNGLHGFLSQDTVKDVMTKSWEPNKRTHHFKKLVRNRHLFPKGAEVLNVIGSVDGILNNDVYVAVDSARAVGYLLDGVAAKVSELMVIGPDGYHCELNRSQNVSREINQFLWDEKYIAQDFKLINSYRADKVYQLAPEELNWAN,not soluble
13,MGSDKIHHHHHHVSYPANRTPDHLLESDRAAGFEISADFERFDQRNDIFTRAFWDERVKSKDTDAFFASYRMEAAPRRGDGFTQKDFALRNAAWLISDIVSERSAEEGLREGFQGAIRDDTPVAPDKADLGAPEAEAAEMKAVAKLFGADLVGITHFDARWHYSARPDVRTMEAVPNDLPEGLGQVIVMGHAMDADLVETYPSALAGAATGREYSHEAAIVMQVAAYVRNLGYRAVASMNDTALVIPYAIKAGLGEYGRNQMVLTPEFGPRVRFSKIFTDMPLAVDAPRAFGLKAYCEGCDVCAVACPVKALPFGAPEFGGKAPSALRGVKKWTSDAEACFGYWAKLRSDCAICMRVCPFTAPRAGWVDRLWYKLAVGVFGDTGRGIARKWAARRAKARVKPKDWWAALRS,not soluble
14,MSLVLIQGAGIAGLALAREFTKAGIDWLLVERASEIRPIGTGITLASNALTALSSTLDLDRLFRRGMPLAGINVYAHDGSMLMSMPSSLGGNSRGGLALQRHELHAALLEGLDESRIRVGVSIVQILDGLDHERVTLSDGTVHDCSLVVGADGIRSSVRRYVWPEATLRHSGETCWRLVVPHRLEDAELAGEVWGHGKRLGFIQISPREMYVYATLKVRREEPEDEEGFVTPQRLAAHYADFDGIGASIARLIPSATTLVHNDLEELAGASWCRGRVVLIGDAAHAMTPNLGQGAAMALEDAFLLARLWCLAPRAETLILFQQQREARIEFIRKQSWIVGRLGQWESPWSVWLRNTLVRLVPNASRRRLHQRLFTGVGEMAAQEGHHHHHH,not soluble
15,MGSDKIHHHHHHMAKYLYGRRVKLVLLTPHESVTFDYKQTETHSMGIQFNVPFSDSSTPPTCTVTIMNLSAKHRKLFKKGYEVKLYAGYAEDGVGLLSAGVIRAISPFTSDGTNNTFSFTYREGQEYSKLLSSAEKANKKADEARKKKAKVIGKKAAAGLPKIKKHSALSFGKNTAASTIIRRIASDAGITLSKVYLAKPKKYKKGYAAHGKPITNIKAIAKACGSKVYYRRGSIVIDDLSKVKGHNEHILVTEHVKGRHGGTGLIQYPTTDSDSMAKHKTWTVTSLLRYQVSTGSVVTVENRFLKGTFRVKSGEHVCDDSAFTTAMEVYV,not soluble
16,MTYFTSWDEFAKAAERLHSANPEKCRFVTKYNHTKGQLVLKLTDDVVCLQYSTNQLQDVKKLEKLSSTLLRGIVTQ,soluble
17,MGSDKIHHHHHHMKDLLTRRFVLNSKEVREGDVFVAVKGKRFDGHDFIDEALRNGAYAIIAERKTVNSDRIFLVESSVDTLAKLAREKLGNFSGTVVGVTGSSGKTTTKEILYNLLKNKRSVFKTPGNMNTEYGLPLSILNDYKGEEILVLEMAASRPGDIAHLCKIAPPDVAVLLNVGSAHLEFFGTRERIMETKMEIIKHSKENAIAVTLFDDPDLRKEVPRYRNTLFFGKEGGDSVLKDWWYYEGSTIAEFEAFDSLFTVKLSGYWNGGQLLNIAASLCVMRTLGETVDIFDLASLKTVPGRFNVREKKGVLIVDDTYNASPEAFQTSIEALLRFPGKKFAVVGAMKELGERSKEFHEELGERLNVLDGVYVFLSEPEAEWIKSKKIILKSDDPEKIAKDLATRVKKGDVVLFKASRAVRIERVLEM,not soluble
18,SLVSAQRAIIDPEGKVLINKVNFIDGGLKAPDEVVRKMVRMGTNIIGEPVCGLYPARLIALTSGYSARIPYTIDLDFWMQLLRLGKLWMIDEPLCAFRISNLSWSSRIGEMRHKQFLAFMEEVAADELFQINDLDLFIGRFNSAVQSMTSLMGFKLFAGSAAEKRVIAVQ,not soluble
